Laboratory results as given in publication PMC12807514.
Where two headings read alike, the source gives them in different places.

Key:
CCR7 (Homo sapiens) [1] = biological target: CCR7 (Homo sapiens) (UniProt P32248); details: cited from earlier work
CCR7 (Homo sapiens) [2] = biological target: CCR7 (Homo sapiens) (UniProt P32248); details: cited from earlier work; remark: listed apart in the source
[3] = biological target: C-C Chemokine Receptor 7 (CCR7), endogenous in CEM cells (human (endogenous in CEM)) (UniProt P32248)

CCL19, sequence (Q99731 22-98): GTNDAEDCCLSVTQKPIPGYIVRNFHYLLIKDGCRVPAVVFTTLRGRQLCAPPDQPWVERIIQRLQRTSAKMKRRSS

CCL21 (from UniProt O00585)
Kd (CCR7 (Homo sapiens) [1]): 0.1 nM

CCL19 (from UniProt Q99731)
Kd (CCR7 (Homo sapiens) [2]): 0.1 nM

human C-C Chemokine Ligand 19 (hCCL19) (from UniProt Q99731 22-98)
CCR7 internalization (CCR7 left on the surface, flow cytometry) in CEM T cells with 200 nM CCL19, measured at 2 min intervals over 10 min [3]: 80%
